Where a chain is given by its changes, count along the chain named.

B1: V30-V40 (bispecific antibody)
chain: QLQLVESGGGSVQPGGSLRLSCEVSGRTFSSYTMGWFRQAPGKGREFVVAISKGGYKYDAVSLEARFTISKDNTKNTVYLQMNSLKPEDTAVYYCAATRAYGSSRLRLAKTYEYWGQGTQVTVSSGGGGSGGGSQLQLVESGGGSVQPGGSLRLSCEVSGRTFTSYTMGWFRQAPGKEREFVVAISKGGYKYNAVSLEARFTISKDNTKNTVYLQMNSLKPEDTAVYYCAATRAYGSSRLRLAKTYEYWGQGTQVTVSS
B2: V1-V40 (bispecific antibody)
chain: B1 chain with G44E, A60S, K110D
B3: V15-V30 (bispecific antibody)
chain: B1 chain with S30A, G44E, A60S, A97G, K110E, T164S, E178G, N193D
B4: V1-V30 (bispecific antibody)
chain: B1 chain with G44E, A60S, K110D, T164S, E178G, N193D
B5: V15-V40 (bispecific antibody)
chain: B1 chain with S30A, G44E, A60S, A97G, K110E
B6: V1-V15 (bispecific antibody)
chain: B1 chain with G44E, A60S, K110D, T164A, N193D, A194S, A231G, K244E
B7: 2V31-9GS (VHH)
chain: B1 chain with S30A, G44E, A97G, T164A, N193D, A231G
notes: Tandem bivalent nanobody
B8: 2V43-9GS (VHH)
chain: B1 chain with S30T, G44E, A60S, A97G, K110N, N193D, A194S, A231G, K244N
notes: Tandem bivalent nanobody
B9: V29 (VHH)
VHH: QLQLVESGGGSVQPGGSLRLSCEVSGRTFSSYTMGWFRQAPGKEREFVVAISKGGYKYDSVSLEARFTISKDNTKNTVYLQMNSLKPEDTAVYYCAGTRAYGSSRLRLANTYEYWGQGTQVTVSS
notes: Monovalent nanobody; tag not described here
B10: V33 (VHH)
VHH: B9 VHH with G97A, N110K
notes: as for B9
B11: V31 (VHH)
VHH: B9 VHH with S30A, S60A, N110K
notes: Monovalent nanobody; tag not described here, the ELISA detects a His tag
B12: V1 (VHH)
VHH: B9 VHH with G97A, N110D
notes: as for B11
B13: 2V15-39GS (VHH)
chain: QLQLVESGGGSVQPGGSLRLSCEVSGRTFASYTMGWFRQAPGKEREFVVAISKGGYKYDSVSLEARFTISKDNTKNTVYLQMNSLKPEDTAVYYCAGTRAYGSSRLRLAETYEYWGQGTQVTVSSGGGGSGGGSGGGGSGGGGSGGGGSGGGGSGGGGSGGGGSQLQLVESGGGSVQPGGSLRLSCEVSGRTFASYTMGWFRQAPGKEREFVVAISKGGYKYDSVSLEARFTISKDNTKNTVYLQMNSLKPEDTAVYYCAGTRAYGSSRLRLAETYEYWGQGTQVTVSS
notes: Tandem bivalent nanobody
B14: 2V1-DP-9GS (VHH)
chain: EVQLVESGGGLVQPGGSLRLSCAVSGRTFSSYTMGWFRQAPGKEREFVVAISKGGYKYDSVSLEARFTISRDNSKNTVYLQMNSLRPEDTAVYYCAATRAYGSSRLRLADTYEYWGQGTLVTVSSGGGGSGGGSEVQLVESGGGLVQPGGSLRLSCAVSGRTFSSYTMGWFRQAPGKEREFVVAISKGGYKYDSVSLEARFTISRDNSKNTVYLQMNSLRPEDTAVYYCAATRAYGSSRLRLADTYEYWGQGTLVTVSS
notes: Tandem bivalent humanized nanobody
B15: 2V1-DP-3GS (VHH)
chain: EVQLVESGGGLVQPGGSLRLSCAVSGRTFSSYTMGWFRQAPGKEREFVVAISKGGYKYDSVSLEARFTISRDNSKNTVYLQMNSLRPEDTAVYYCAATRAYGSSRLRLADTYEYWGQGTLVTVSSGGSEVQLVESGGGLVQPGGSLRLSCAVSGRTFSSYTMGWFRQAPGKEREFVVAISKGGYKYDSVSLEARFTISRDNSKNTVYLQMNSLRPEDTAVYYCAATRAYGSSRLRLADTYEYWGQGTLVTVSS
notes: as for B14
B16: 2V30-2H-2m-3GS (VHH)
chain: B15 chain with V24A, S60A, D110K, V152A, S188A, D238K
notes: as for B14
B17: 2V15-4m-3GS (VHH)
chain: B15 chain with V24A, S30A, S74A, A97G, D110E, V152A, S158A, S202A, A225G, D238E
notes: as for B14
B18: 2V43-1H-2m-3GS (VHH)
chain: B15 chain with V24A, D110N, V152A, D238N
notes: as for B14
B19: 2V1-SA1-3GS (VHH)
chain: B15 chain with S74A, S202A
notes: as for B14
B20: 2V30-2H-2m-NL (VHH)
chain: EVQLVESGGGLVQPGGSLRLSCAASGRTFSSYTMGWFRQAPGKEREFVVAISKGGYKYDAVSLEARFTISRDNSKNTVYLQMNSLRPEDTAVYYCAATRAYGSSRLRLAKTYEYWGQGTLVTVSSEVQLVESGGGLVQPGGSLRLSCAASGRTFSSYTMGWFRQAPGKEREFVVAISKGGYKYDAVSLEARFTISRDNSKNTVYLQMNSLRPEDTAVYYCAATRAYGSSRLRLAKTYEYWGQGTLVTVSS
notes: as for B14
B21: 2V40-3H-2m-NL (VHH)
chain: B20 chain with D59N, D184N
notes: as for B14
B22: 2V1-DP-NL (VHH)
chain: B20 chain with A24V, A60S, K110D, A149V, A185S, K235D
notes: as for B14
B23: 2V1-SA1-NL (VHH)
chain: B20 chain with A24V, A60S, S74A, K110D, A149V, A185S, S199A, K235D
notes: as for B14
B24: 2V13-4m-NL (VHH)
chain: B20 chain with S30T, S74A, A97G, K110D, S155T, S199A, A222G, K235D
notes: as for B14
B25: 2V15-4m-NL (VHH)
chain: B20 chain with S30A, A60S, S74A, A97G, K110E, S155A, A185S, S199A, A222G, K235E
notes: as for B14

For one test, the target named is T1, human VEGFA165 (human, UniProt P15692-4 27-191).
T1 construct: Bought protein from two suppliers, treated as one molecule; the supplier is named under assay; also called antigen VEGFA
T1 sequence (P15692 other isoform, or with tags, fused parts or gaps limits assumed): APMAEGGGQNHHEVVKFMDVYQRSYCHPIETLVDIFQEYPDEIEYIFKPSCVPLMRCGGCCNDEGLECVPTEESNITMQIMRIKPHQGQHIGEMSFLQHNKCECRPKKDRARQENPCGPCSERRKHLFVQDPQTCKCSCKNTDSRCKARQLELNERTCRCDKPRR
The test can be described thus: competitive ELISA, coated VEGFA, competitor VEGFR2-ECD-Fc 1 nM.
With B1, the IC50 turned out to be 3320 pM and the “Maximum inhibition rate (%)” value was found to be 89.8%.

B2: the IC50 stood at 3740 pM and the “Maximum inhibition rate (%)” value stood at 88.5%.

Consider B3, for which the IC50 came to 3220 pM and the “Maximum inhibition rate (%)” value was 91.2%.

Take B4: the IC50 worked out at 2840 pM and the “Maximum inhibition rate (%)” value was 91.1%.

Regarding B5, the IC50 amounted to 4060 pM and the “Maximum inhibition rate (%)” value came to 90.1%.

B6: the IC50 turned out to be 3800 pM and the “Maximum inhibition rate (%)” value was found to be 87.8%.

The next test has as its target T1, human VEGFA165. Put plainly: ELISA, coated human VEGFA165, anti-His detection. Here is the method: (§1) Antigen human VEGFA165 (label-free, purchased from Sino Biological, Cat. No.: HPLC-10008-HNAH, hereinafter referred to as VEGFA) was diluted with ELISA coating buffer to a final concentration of 0.3 μg/mL and added to a microplate at 100 μL/well for coating at 4° C. overnight. […] The solution used for antibody dilution was PBS containing 0.1% Tween-20 (pH 7.4), i.e., PBST. After being incubated at 37° C. for 1 h, the microplate was washed 3 times with PBST, and a dilution of His-Tag murine monoclonal antibody (purchased from Proteintech, Cat. No.: 66005-1-Ig) was added. The plate was further incubated at 37° C. for 1 h and washed again. Subsequently, a dilution of HRP-labeled goat anti-mouse IgG antibody (HRP-conjugated Affinipure Goat Anti-Mouse IgG (H+L), purchased from Proteintech, Cat. No.: SA00001-1) was added, and the plate was incubated at room temperature for 45 min. After the plate was washed, 100 μL of TMB (purchased from Tiangen Biotech, Cat. No.: PA107-01) was added to each well for color development at 37° C. for 15 min, followed by the addition of 50 μL of stopping solution. The absorbance at 450 nm (OD450) was measured using a microplate reader.
A general note: In an ELISA, binding on a coated surface is turned into a signal by an enzyme label.
In turn, B7 had a concentration for a half-maximal effect (EC50) of 310 pM.

In the case of B1, the EC50 came out at 310 pM.

With B2, the response was half-maximal at 420 pM (EC50).

The molecule B3 yielded an EC50 of 410 pM.

With B4, it took 310 pM to reach a half-maximal effect (EC50).

On to B8, for which a half-maximal response (EC50) required 170 pM. Compared with the last molecule, the EC50 is about 1.8-fold lower.

In turn, B5 displayed an EC50 of 260 pM.

B6: the concentration for a half-maximal effect (EC50) stood at 290 pM.

The next test addresses T1, human VEGFA165. The test can be described thus: SPR Biacore 8K, VEGFA165 on CM5, nanobody analyte, 1:1 fit. Here is the method:
Using the Biacore 8K instrument (Cytiva), the antigen VEGFA165 (label-free, purchased from Sino Biological, Cat. No.: HPLC-10008-HNAH) as the ligand was coupled onto a CM5 chip through amino-coupling reagents (EDC and NHS), with the coupling level being about 400 RU. The mobile phase buffer was HBS-EP (0.01 M HEPES pH 7.4, 0.15 M NaCl, 3 mM EDTA, 0.005% v/v Tween 20) during the experiment. […] In the kinetic analysis, the binding time between the antigen and the antibody was 240 s, the dissociation time was 1500 s, and the flow rate was 30 μL/min. In a multi-cycle mode, the chip was regenerated with 100 mM hydrochloric acid.
Background: In SPR one partner is held on a chip, and binding of the other changes the refractive index at the surface.
The molecule B9 registered a Kd of 653 pM, a koff of 0.000154 s⁻¹ and a kon of 236000 M⁻¹ s⁻¹.

Turning to B10, the affinity, expressed as Kd, was 719 pM; the off-rate constant (koff) stood at 0.000233 s⁻¹; the kon was found to be 324000 M⁻¹ s⁻¹.

The next test deals with T1, human VEGFA165. The test can be described thus: ELISA, coated human VEGFA165, anti-His detection. This is another data set of the same source. As for the experimental part: as §1
The experimental procedure was the same as that described in “2.
The molecule B7 displayed an EC50 of 310 pM.

Take B8: the EC50 was determined as 170 pM.

In turn, B11 had an EC50 of 770 pM.

B12 came in with an EC50 of 520 pM.

A further test addresses T1, human VEGFA165. The test can be described thus: ELISA, coated human VEGFA165, anti-His detection. This is another data set of the same source. Here is the method: as §1
B13 gave an EC50 of 380 pM.

The target in a further test is T1, human VEGFA165. The test can be described thus: competitive ELISA, coated VEGFA, competitor VEGFR2-ECD-Fc 1 nM. This is another data set of the same source.
For B13, the half-inhibitory concentration (IC50) amounted to 1740 pM and the “Maximum inhibition rate (%)” value was found to be 94.5%.

The next test has as its target T1, human VEGFA165. Put plainly: ELISA, coated human VEGFA165, anti-His detection. The source holds these as a separate data set. Here is the method:
as §1
The purified bivalent humanized nanobodies were evaluated for their VEGFA binding activity, and the experimental procedure was the same as that described in “2.
On to B14, for which the EC50 worked out at 230 pM.

Molecule B15 yielded an EC50 of 270 pM.

B16 displayed an EC50 of 940 pM.

On to B17, for which the EC50 amounted to 240 pM.

In turn, B18 came in with an EC50 of 1190 pM.

On to B19, for which the midpoint of the response, the EC50, lay at 260 pM.

B20: a half-maximal response (EC50) required 810 pM.

Consider B21, for which it took 260 pM to reach a half-maximal effect (EC50).

Take B22: a half-maximal effect (EC50) was put at 200 pM.

As to B23, the EC50 worked out at 280 pM.

In turn, B24 displayed an EC50 of 220 pM.

For the molecule B25, a half-maximal response (EC50) required 190 pM.

For orientation: IC50 means the concentration that inhibits the measured activity by half. Read a low IC50 as inhibition by little substance. Usually EC50 stands for the concentration needed to bring the measured effect to its halfway point. A lower EC50 goes with an effect from little substance. By Kd is commonly meant the constant that tells how readily two partners part at equilibrium. Read a low Kd as higher affinity. What is called koff is a measure of how fast the partners let go of each other. Usually kon stands for a measure of how fast the partners come together. Higher therefore signals fast association.

(Values after patent US20260234232A1 (QUAERITE BIOPHARM RESEARCH BEIJING, published 2026).)
